Laboratory results: patent publication US8815237

Legend:
Assay in all cases: SPR (Biacore T100), steady state; antibody immobilized, soluble receptor injected
[1] = molecular target: soluble human FcγRIIA^131R (human) (UniProt P12318)
[2] = molecular target: soluble human FcγRIa (R&D Systems) (human) (UniProt P12314)
[3] = molecular target: soluble human FcγRIIA^131H (human) (UniProt P12318)

UniProt P12314, sequence (P12314 16-288 limits assumed): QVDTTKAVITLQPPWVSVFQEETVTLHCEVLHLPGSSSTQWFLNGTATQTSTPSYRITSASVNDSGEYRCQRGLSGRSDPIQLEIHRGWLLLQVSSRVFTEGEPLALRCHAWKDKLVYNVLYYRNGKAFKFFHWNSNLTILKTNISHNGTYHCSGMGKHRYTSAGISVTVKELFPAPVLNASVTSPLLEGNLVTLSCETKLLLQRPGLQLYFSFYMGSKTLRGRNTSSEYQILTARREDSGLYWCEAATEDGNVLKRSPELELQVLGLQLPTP

Kd [1]: 1.7 µM
fold stronger binding than wild-type Fc [1]: 3 fold
fold weakening of binding against wild type [2]: 10 fold
Kd [3]: 7 µM
Substance: 4m5.3 hIgG1 S298G/T299A (antibody)
